From patent publication US20240116985A1 (published 2024)
Starred links: 1 amine or outer side, 2 acyl side, 3 side chain; linkers in the order of their positions; H or OH if unused. Positions of bridges follow the written chain, without caps; N, C: chain ends. Non-standard residues stand in square brackets, D forms with d. Primed or numbered codes have the meaning given here. PyrS2″ = (S)-3-amino-1-((pent-4-en-1-yloxy)carbonyl)pyrrolidine-3-carboxylic acid (stapling residue), C=CCCCOC(=O)N1CC[C@@](N[*:1])(C(=O)[*:2])C1; B5(4) = 2,2-bis(4-pentenyl)glycine = 2-amino-2-(pent-4-en-1-yl)hept-6-enoic acid (stitching residue), C=CCCCC(CCCC=C)(N[*:1])C(=O)[*:2]; B5(20) = 2-amino-2-(pent-4-en-1-yl)hept-6-enoic acid = bis(4-pentenyl)glycine, stitching residue, C=CCCCC(CCCC=C)(N[*:1])C(=O)[*:2]; B5(6) = 2-amino-2-(pent-4-en-1-yl)hept-6-enoic acid (bis(4-pentenyl)glycine), stitching residue, C=CCCCC(CCCC=C)(N[*:1])C(=O)[*:2]; B5″ = 2,2-bis(4-pentenyl)glycine, stitching residue, C=CCCCC(CCCC=C)(N[*:1])C(=O)[*:2]; Phe(2-CONH2) = NC(=O)c1ccccc1C[C@H](N)C(=O)O; Phe(2-Cl) = N[C@@H](Cc1ccccc1Cl)C(=O)O; Phe(2-OMe) = COc1ccccc1C[C@H](N)C(=O)O; Bta = N[C@@H](Cc1csc2ccccc12)C(=O)O; αAllylPro = C=CC[C@@]1(C(=O)O)CCCN1; tBuAla = CC(C)(C)C[C@H](N)C(=O)O; 3Thi = N[C@@H](Cc1ccsc1)C(=O)O; Cha = N[C@@H](CC1CCCCC1)C(=O)O; S8 = C=CCCCCCC[C@](C)(N)C(=O)O; Thr(ol) = C[C@@H](O)[C@H](N)CO

T1: B-cat-Halo (beta-catenin HaloTag construct expressed in HEK293 cells) (UniProt P35222 1-781)
T1 sequence (looked up): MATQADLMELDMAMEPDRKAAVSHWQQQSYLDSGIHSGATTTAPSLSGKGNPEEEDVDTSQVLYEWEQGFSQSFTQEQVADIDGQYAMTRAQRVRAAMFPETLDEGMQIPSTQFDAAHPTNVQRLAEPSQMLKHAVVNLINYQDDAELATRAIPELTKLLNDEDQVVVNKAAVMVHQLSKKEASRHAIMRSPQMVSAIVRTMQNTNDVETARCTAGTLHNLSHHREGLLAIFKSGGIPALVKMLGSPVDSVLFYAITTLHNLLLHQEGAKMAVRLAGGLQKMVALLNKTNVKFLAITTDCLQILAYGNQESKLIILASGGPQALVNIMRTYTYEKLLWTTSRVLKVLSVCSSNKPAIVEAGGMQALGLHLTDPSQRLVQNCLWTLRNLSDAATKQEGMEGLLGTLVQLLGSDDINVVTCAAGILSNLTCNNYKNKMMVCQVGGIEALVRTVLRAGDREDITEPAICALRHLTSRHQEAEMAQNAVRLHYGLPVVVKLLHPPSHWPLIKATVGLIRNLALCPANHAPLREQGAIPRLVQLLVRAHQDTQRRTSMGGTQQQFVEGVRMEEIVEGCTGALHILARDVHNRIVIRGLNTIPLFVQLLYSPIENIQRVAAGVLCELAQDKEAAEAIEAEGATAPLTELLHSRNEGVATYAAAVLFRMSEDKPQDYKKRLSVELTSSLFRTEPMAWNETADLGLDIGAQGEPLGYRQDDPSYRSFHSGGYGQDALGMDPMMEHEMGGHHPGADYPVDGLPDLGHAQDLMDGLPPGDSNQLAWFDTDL

T2: B-cat-Halo (NanoBRET construct expressed in HEK293 cells) (UniProt P35222 1-781)
T2 sequence (looked up): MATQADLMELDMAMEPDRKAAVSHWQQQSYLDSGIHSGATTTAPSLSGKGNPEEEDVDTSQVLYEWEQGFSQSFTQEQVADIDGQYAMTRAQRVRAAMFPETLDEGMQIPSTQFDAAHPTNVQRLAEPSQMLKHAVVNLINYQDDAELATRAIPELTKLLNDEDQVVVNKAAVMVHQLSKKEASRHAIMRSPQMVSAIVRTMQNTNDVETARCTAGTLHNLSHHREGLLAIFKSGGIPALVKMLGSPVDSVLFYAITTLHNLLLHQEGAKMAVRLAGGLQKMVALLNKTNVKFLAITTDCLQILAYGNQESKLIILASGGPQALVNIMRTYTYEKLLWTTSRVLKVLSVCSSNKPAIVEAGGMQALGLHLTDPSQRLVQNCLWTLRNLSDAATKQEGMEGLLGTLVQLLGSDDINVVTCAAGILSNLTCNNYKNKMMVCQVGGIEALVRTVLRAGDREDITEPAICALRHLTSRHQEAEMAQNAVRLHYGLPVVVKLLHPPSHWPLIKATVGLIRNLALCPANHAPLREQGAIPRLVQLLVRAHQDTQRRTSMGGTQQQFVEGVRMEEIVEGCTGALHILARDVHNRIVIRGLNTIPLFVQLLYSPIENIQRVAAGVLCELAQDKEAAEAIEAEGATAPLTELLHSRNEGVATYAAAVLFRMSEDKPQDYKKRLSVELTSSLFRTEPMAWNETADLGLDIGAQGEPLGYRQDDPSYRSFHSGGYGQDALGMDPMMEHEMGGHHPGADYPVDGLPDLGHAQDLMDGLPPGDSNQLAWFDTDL

T3: B-cat-Halo (UniProt P35222 1-781)
T3 sequence (looked up): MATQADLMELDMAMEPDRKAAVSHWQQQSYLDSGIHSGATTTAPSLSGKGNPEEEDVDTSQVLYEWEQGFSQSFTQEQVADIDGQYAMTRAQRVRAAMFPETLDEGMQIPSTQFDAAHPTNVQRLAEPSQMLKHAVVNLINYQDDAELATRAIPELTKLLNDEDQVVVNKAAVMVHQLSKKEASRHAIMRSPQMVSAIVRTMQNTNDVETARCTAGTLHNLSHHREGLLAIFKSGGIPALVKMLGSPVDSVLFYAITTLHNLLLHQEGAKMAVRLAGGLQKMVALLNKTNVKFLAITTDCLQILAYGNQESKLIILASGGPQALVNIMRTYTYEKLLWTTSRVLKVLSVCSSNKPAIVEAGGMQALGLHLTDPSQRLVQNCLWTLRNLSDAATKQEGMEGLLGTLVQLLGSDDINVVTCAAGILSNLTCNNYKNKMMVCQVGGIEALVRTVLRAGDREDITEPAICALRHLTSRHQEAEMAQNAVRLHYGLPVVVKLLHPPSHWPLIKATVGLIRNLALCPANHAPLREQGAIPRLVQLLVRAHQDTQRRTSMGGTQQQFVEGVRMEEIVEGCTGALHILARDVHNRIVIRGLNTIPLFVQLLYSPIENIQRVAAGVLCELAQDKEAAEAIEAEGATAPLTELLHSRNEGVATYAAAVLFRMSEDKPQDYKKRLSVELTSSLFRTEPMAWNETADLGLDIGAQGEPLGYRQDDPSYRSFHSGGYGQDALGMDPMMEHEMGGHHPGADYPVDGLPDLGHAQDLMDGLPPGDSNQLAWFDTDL

T4: full-length beta-Catenin (Uniprot ID P35222) (Homo sapiens (Human), UniProt P35222 1-781)
T4 construct: also called bCat; B-Catenin
T4 sequence: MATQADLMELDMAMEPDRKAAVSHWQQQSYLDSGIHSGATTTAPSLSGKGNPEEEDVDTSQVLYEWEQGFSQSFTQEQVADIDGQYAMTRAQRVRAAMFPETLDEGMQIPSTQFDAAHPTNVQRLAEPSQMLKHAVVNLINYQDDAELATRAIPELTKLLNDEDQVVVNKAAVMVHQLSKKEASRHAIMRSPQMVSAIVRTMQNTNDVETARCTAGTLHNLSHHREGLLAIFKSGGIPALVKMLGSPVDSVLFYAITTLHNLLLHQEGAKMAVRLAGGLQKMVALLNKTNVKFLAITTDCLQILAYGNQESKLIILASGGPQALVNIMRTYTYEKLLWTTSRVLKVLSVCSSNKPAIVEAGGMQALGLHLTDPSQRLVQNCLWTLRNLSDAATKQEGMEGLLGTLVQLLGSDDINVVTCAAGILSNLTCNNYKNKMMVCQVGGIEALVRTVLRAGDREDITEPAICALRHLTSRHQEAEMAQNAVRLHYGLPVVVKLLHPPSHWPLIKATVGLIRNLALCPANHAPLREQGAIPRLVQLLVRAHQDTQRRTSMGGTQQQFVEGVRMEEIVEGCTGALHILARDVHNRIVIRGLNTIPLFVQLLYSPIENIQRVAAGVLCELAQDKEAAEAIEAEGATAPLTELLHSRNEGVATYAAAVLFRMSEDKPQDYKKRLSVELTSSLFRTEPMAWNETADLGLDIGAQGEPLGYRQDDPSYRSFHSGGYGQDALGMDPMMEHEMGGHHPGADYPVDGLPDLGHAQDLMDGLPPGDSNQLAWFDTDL

B1: I-1188 (peptide)
peptide: Ac-[αAllylPro]D[tBuAla][B5″]DDAAFL[S8][3Thi][Bta]Q-NH2
modifications: staple 1-4, 4-11
B2: I-1195 (peptide)
peptide: Ac-[αAllylPro]D[tBuAla][B5″]DDAAFL[S8][3Thi][Bta]H-NH2
modifications: staple 1-4, 4-11
B3: I-512 (peptide)
peptide: Ac-[αAllylPro]DI[B5(20)]DEAAFN[S8][Phe(2-OMe)][Bta]H-NH2
modifications: staple 1-4, 4-11
notes: Stapled peptide composition
B4: I-514 (peptide)
peptide: Ac-[αAllylPro]DI[B5(20)]DEAAFN[S8][Phe(2-CONH2)][Bta]H-NH2
modifications: staple 1-4, 4-11
notes: Stapled peptide composition
B5: I-519 (peptide)
peptide: Ac-[αAllylPro]DA[B5(20)]DEAAFN[S8][3Thi][Bta]Q-NH2
modifications: staple 1-4, 4-11; also: later-eluting HPLC peak of staple isomers
B6: I-506 (peptide)
peptide: Ac-[αAllylPro]DL[B5(6)]DEAAFQ[S8]F[Bta]H-NH2
modifications: staple 1-4, 4-11
notes: Stapled peptide composition
B7: I-516 (peptide)
peptide: Ac-[αAllylPro]DA[B5(20)]DEAAFN[S8][3Thi][Bta]H-NH2
modifications: staple 1-4, 4-11; also: later-eluting HPLC peak of staple isomers
B8: I-521 (peptide)
peptide: Ac-[αAllylPro]DI[B5(20)]DEAAFN[S8][3Thi][Bta]Q-NH2
modifications: staple 1-4, 4-11; also: later-eluting HPLC peak of staple isomers
B9: I-517 (peptide)
peptide: Ac-[αAllylPro]DI[B5(20)]DEAAFN[S8][3Thi][Bta]H-NH2
modifications: staple 1-4, 4-11
B10: I-1308 (peptide)
peptide: Ac-[αAllylPro]D[tBuAla][B5(4)]DDAAFT[S8][Phe(2-Cl)][Bta][Thr(ol)]
modifications: staple 1-4, 4-11
B11: I-1310 (peptide)
peptide: Ac-[αAllylPro]D[Cha][B5(4)]DTAAFT[PyrS2″][Phe(2-Cl)][Bta][Thr(ol)]
modifications: staple 1-4, 4-11
B12: I-1311 (peptide)
peptide: Ac-[αAllylPro]D[tBuAla][B5(4)]DDAAFF[PyrS2″][Phe(2-Cl)][Bta][Thr(ol)]
modifications: staple 1-4, 4-11
B13: I-1309 (peptide)
peptide: Ac-[αAllylPro]D[tBuAla][B5(4)]DTAAFT[PyrS2″][Phe(2-Cl)][Bta][Thr(ol)]
modifications: staple 1-4, 4-11

Molecular target: T1, B-cat-Halo (beta-catenin HaloTag …)
Assay: cell-based or functional assay

Row | NanoBRET Abs IC50 | Binder
1 | 7.2 µM | B1
2 | 16.2 µM | B2

Molecular target: T2, B-cat-Halo (NanoBRET construct …)
Assay: cell-based or functional assay

Row | NanoBRET Abs IC50 | Binder
3 | 12.3 µM | B3
4 | > 20 µM | B4
5 | 28.8 µM | B5
6 | 8.9 µM | B6
7 | 30.5 µM | B7
8 | 15.4 µM | B8
9 | 9.7 µM | B9

Molecular target: T3, B-cat-Halo
Assay: cell-based or functional assay

Row | NanoBRET Abs IC50 (uM); B-cat-Halo / TCF4-Luc in HEK293 cells | Binder
10 | 11.9 µM | B10
11 | > 20 µM | B11
12 | 20.6 µM | B12
13 | 28.6 µM | B13

Molecular target: T4, full-length beta-Catenin (Uniprot ID …)
Assay: FP competition: full-length beta-catenin 10 nM + 5FAM-TCF4(10-53) 10 nM
Method: The plate was incubated protected from light for 60 minutes at 20° C. prior to read. Reads were performed on a CLARIOstar plate reader (BMG Labtech) in duplicate, and data were fitted to a 1:1 binding model with hill slope using an in-house script. All provided concentrations are final concentrations.

Row | IC50 | Binder
14 | 0.02 µM | B3
15 | 0.03 µM | B4
16 | 0.025 µM | B6
